Target: C1Q (UniProt P02745)
Test: ELISA, antibody coated on the plate, C1q titrated (axis [C1q] nM), anti-human C1q-HRP detection

Chain of C1Q (P02745 23-245 limits assumed, chain 1 of 3): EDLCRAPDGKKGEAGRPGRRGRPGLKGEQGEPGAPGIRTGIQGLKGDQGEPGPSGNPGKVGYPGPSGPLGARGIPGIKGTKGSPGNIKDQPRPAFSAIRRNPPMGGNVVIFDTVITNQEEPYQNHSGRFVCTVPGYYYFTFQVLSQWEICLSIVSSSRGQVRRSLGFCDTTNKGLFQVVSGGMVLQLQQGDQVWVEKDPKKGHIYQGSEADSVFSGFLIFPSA
Chain of C1Q (P02746 28-253 limits assumed, chain 2 of 3, further chain): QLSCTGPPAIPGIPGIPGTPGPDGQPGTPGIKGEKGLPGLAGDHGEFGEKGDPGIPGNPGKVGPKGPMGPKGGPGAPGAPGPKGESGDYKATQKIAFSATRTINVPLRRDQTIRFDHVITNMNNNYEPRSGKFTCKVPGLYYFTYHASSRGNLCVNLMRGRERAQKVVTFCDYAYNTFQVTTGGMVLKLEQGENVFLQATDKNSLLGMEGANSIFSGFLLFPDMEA
Chain of C1Q (P02747 29-245 limits assumed, chain 3 of 3, further chain): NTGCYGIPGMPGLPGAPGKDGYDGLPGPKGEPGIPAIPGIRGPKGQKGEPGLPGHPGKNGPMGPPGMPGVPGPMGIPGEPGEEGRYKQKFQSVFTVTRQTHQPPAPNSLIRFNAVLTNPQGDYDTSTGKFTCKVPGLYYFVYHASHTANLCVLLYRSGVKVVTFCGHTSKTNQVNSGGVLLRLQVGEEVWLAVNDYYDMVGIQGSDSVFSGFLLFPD

## control human IgG1 antibody
  EC50 (read off the curve): 0.03 µM
